What was measured:
Assay in all cases: cell-based or functional assay
[1] = molecular target: HIV-1 Env of isolate JRFL (clade B) on pseudovirus (HIV-1)
[2] = molecular target: HIV-1 Env of isolate MGRM-C-027 (clade C) on pseudovirus (HIV-1)
[3] = molecular target: HIV-1 Env of isolate 92RW020 (clade A) on pseudovirus (HIV-1)
[4] = molecular target: HIV-1 Env of isolate MGRM-D-001 (clade D) on pseudovirus (HIV-1)
[5] = molecular target: HIV-1 Env of isolate 92BR020 (clade B) on pseudovirus (HIV-1)
[6] = molecular target: HIV-1 Env of isolate 93UG077 (clade A) on pseudovirus (HIV-1)
[7] = molecular target: HIV-1 Env of isolate APV17 (clade B) on pseudovirus (HIV-1)
[8] = molecular target: HIV-1 Env of isolate JRCSF (clade B) on pseudovirus (HIV-1) (UniProt P20871)
[9] = molecular target: HIV-1 Env of isolate 93IN905 (clade C) on pseudovirus (HIV-1)
[10] = molecular target: HIV-1 Env of isolate MGRM-C-026 (clade C) on pseudovirus (HIV-1)
[11] = molecular target: HIV-1 Env of isolate APV13 (clade B) on pseudovirus (HIV-1)
[12] = molecular target: HIV-1 Env of isolate 94UG103 (clade A) on pseudovirus (HIV-1)
[13] = molecular target: HIV-1 Env of isolate APV6 (clade B) on pseudovirus (HIV-1)
[14] = molecular target: HIV-1 Env of isolate MGRM-D-018 (clade D) on pseudovirus (HIV-1)
[15] = molecular target: HIV-1 Env of isolate MGRM-AE-001 (pseudovirus) (HIV-1)
[16] = molecular target: HIV-1 Env of isolate MGRM-A-001 (pseudovirus) (HIV-1)
[17] = molecular target: HIV-1 Env of isolate MGRM-A-013 (pseudovirus) (HIV-1)
[18] = molecular target: HIV-1 Env of isolate MGRM-A-014 (pseudovirus) (HIV-1)
[19] = molecular target: HIV-1 Env of isolate MGRM-A-008 (pseudovirus) (HIV-1)
[20] = molecular target: HIV-1 Env of isolate MGRM-A-002 (pseudovirus) (HIV-1)
[21] = molecular target: HIV-1 Env of isolate MGRM-AE-003 (pseudovirus) (HIV-1)
[22] = molecular target: HIV-1 Env of isolate 93WR029 (pseudovirus) (HIV-1)
[23] = molecular target: HIV-1 Env of isolate 94UG103 (pseudovirus) (HIV-1)
[24] = molecular target: HIV-1 Env of isolate MGRM-AE-002 (pseudovirus) (HIV-1)
[25] = molecular target: HIV-1 Env of isolate 92WR009 (pseudovirus) (HIV-1)
[26] = molecular target: HIV-1 Env of isolate MGRM-A-003 (pseudovirus) (HIV-1)
[27] = molecular target: HIV-1 Env of isolate 92WR020 (pseudovirus) (HIV-1)
[28] = molecular target: HIV-1 Env of isolate MGRM-A-011 (pseudovirus) (HIV-1)
[29] = molecular target: HIV-1 Env of isolate 93UG077 (pseudovirus) (HIV-1)
[30] = molecular target: HIV-1 Env of isolate VLGCA1 (pseudovirus) (HIV-1)
[31] = molecular target: HIV-1 Env of isolate MGRM-A-005 (pseudovirus) (HIV-1)
[32] = molecular target: HIV-1 Env of isolate MGRM-A-006 (pseudovirus) (HIV-1)
[33] = molecular target: HIV-1 Env of isolate MGRM-A-012 (pseudovirus) (HIV-1)
[34] = molecular target: HIV-1 Env of isolate 92WR024 (pseudovirus) (HIV-1)
[35] = molecular target: HIV-1 Env of isolate MGRM-A-009 (pseudovirus) (HIV-1)
[36] = molecular target: HIV-1 Env of isolate 92UG037 (pseudovirus) (HIV-1)
[37] = molecular target: HIV-1 Env of isolate 92WR026 (pseudovirus) (HIV-1)
[38] = molecular target: HIV-1 Env of isolate MGRM-A-010 (pseudovirus) (HIV-1)
[39] = molecular target: HIV-1 Env of isolate 92WR021 (pseudovirus) (HIV-1)
[40] = molecular target: HIV-1 Env of isolate MGRM-A-007 (pseudovirus) (HIV-1)
[41] = molecular target: HIV-1 Env of isolate 92TH021 (pseudovirus) (HIV-1)
[42] = molecular target: HIV-1 Env of isolate 92RW008 (pseudovirus) (HIV-1)
[43] = molecular target: HIV-1 Env of isolate 94KE105 (pseudovirus) (HIV-1)
[44] = molecular target: HIV-1 Env of isolate CMU02 (pseudovirus) (HIV-1)
[45] = molecular target: HIV-1 Env of isolate MGRM-A-004 (pseudovirus) (HIV-1)
[46] = molecular target: HIV-1 Env of isolate 92UG031 (pseudovirus) (HIV-1)

## PGT-121 (4838_L06; 4873_E03) human monoclonal anti-HIV antibody
[1]
  IC80 (pseudovirus neutralization): 0.0806 µg/mL
  IC90 (pseudovirus neutralization): 0.151 µg/mL
  IC95 (pseudovirus neutralization): 0.267 µg/mL
[2]
  IC80 (pseudovirus neutralization): 0.0829 µg/mL
  IC90 (pseudovirus neutralization): 0.374 µg/mL
  IC95 (pseudovirus neutralization): 3.14 µg/mL
[3]
  IC80 (pseudovirus neutralization): 0.0188 µg/mL
  IC90 (pseudovirus neutralization): 0.0361 µg/mL
  IC95 (pseudovirus neutralization): 0.0671 µg/mL
[4]
  IC80 (pseudovirus neutralization): 3.29 µg/mL
  IC90 (pseudovirus neutralization): 6.26 µg/mL
  IC95 (pseudovirus neutralization): 9.39 µg/mL
[5]
  IC80 (pseudovirus neutralization): 0.0532 µg/mL
  IC90 (pseudovirus neutralization): 0.101 µg/mL
[6]
  IC90 (pseudovirus neutralization): 0.369 µg/mL
  IC95 (pseudovirus neutralization): 0.74 µg/mL
[7]
  IC80 (pseudovirus neutralization): 0.371 µg/mL
  IC90 (pseudovirus neutralization): 0.799 µg/mL
  IC95 (pseudovirus neutralization): 1.55 µg/mL
[8]
  IC90 (pseudovirus neutralization): 0.223 µg/mL
  IC95 (pseudovirus neutralization): 0.417 µg/mL
[9]
  IC80 (pseudovirus neutralization): 0.0302 µg/mL
  IC90 (pseudovirus neutralization): 0.0645 µg/mL
[10]
  IC95 (pseudovirus neutralization): 0.0687 µg/mL
[11]
  IC80 (pseudovirus neutralization): 1.31 µg/mL
  IC90 (pseudovirus neutralization): 2.8 µg/mL
  IC95 (pseudovirus neutralization): 5.15 µg/mL
[12]
  IC80 (pseudovirus neutralization): 8.85 µg/mL
[13]
  IC80 (pseudovirus neutralization): 0.145 µg/mL
  IC95 (pseudovirus neutralization): 0.569 µg/mL
[14]
  IC80 (pseudovirus neutralization): 0.0231 µg/mL
  IC90 (pseudovirus neutralization): 0.0414 µg/mL
  IC95 (pseudovirus neutralization): 0.0715 µg/mL

## PGT-122 (4877_D15) (antibody)
[15]
  IC50 (µg/mL), pseudovirus neutralization: > 50 µg/mL
[16]
  IC50 (µg/mL), pseudovirus neutralization: > 50 µg/mL
[17]
  IC50 (µg/mL), pseudovirus neutralization: 2.47 µg/mL
[18]
  IC50 (µg/mL), pseudovirus neutralization: 0.007 µg/mL
[19]
  IC50 (µg/mL), pseudovirus neutralization: > 50 µg/mL
[20]
  IC50 (µg/mL), pseudovirus neutralization: 0.017 µg/mL
[21]
  IC50 (µg/mL), pseudovirus neutralization: > 50 µg/mL
[22]
  IC50 (µg/mL), pseudovirus neutralization: > 50 µg/mL
[23]
  IC50 (µg/mL), pseudovirus neutralization: 2.04 µg/mL
[24]
  IC50 (µg/mL), pseudovirus neutralization: > 50 µg/mL
[25]
  IC50 (µg/mL), pseudovirus neutralization: 42.4 µg/mL
[26]
  IC50 (µg/mL), pseudovirus neutralization: 3.79 µg/mL
[27]
  IC50 (µg/mL), pseudovirus neutralization: 0.009 µg/mL
[28]
  IC50 (µg/mL), pseudovirus neutralization: > 50 µg/mL
[29]
  IC50 (µg/mL), pseudovirus neutralization: 0.084 µg/mL
[30]
  IC50 (µg/mL), pseudovirus neutralization: > 50 µg/mL
[31]
  IC50 (µg/mL), pseudovirus neutralization: > 50 µg/mL
[32]
  IC50 (µg/mL), pseudovirus neutralization: > 50 µg/mL
[33]
  IC50 (µg/mL), pseudovirus neutralization: 0.257 µg/mL
[34]
  IC50 (µg/mL), pseudovirus neutralization: > 50 µg/mL
[35]
  IC50 (µg/mL), pseudovirus neutralization: 0.012 µg/mL
[36]
  IC50 (µg/mL), pseudovirus neutralization: 0.068 µg/mL
[37]
  IC50 (µg/mL), pseudovirus neutralization: 0.036 µg/mL
[38]
  IC50 (µg/mL), pseudovirus neutralization: 2.51 µg/mL
[39]
  IC50 (µg/mL), pseudovirus neutralization: 0.021 µg/mL
[40]
  IC50 (µg/mL), pseudovirus neutralization: > 50 µg/mL
[41]
  IC50 (µg/mL), pseudovirus neutralization: > 50 µg/mL
[42]
  IC50 (µg/mL), pseudovirus neutralization: 0.003 µg/mL
[43]
  IC50 (µg/mL), pseudovirus neutralization: 0.056 µg/mL
[44]
  IC50 (µg/mL), pseudovirus neutralization: > 50 µg/mL
[45]
  IC50 (µg/mL), pseudovirus neutralization: > 50 µg/mL
[46]
  IC50 (µg/mL), pseudovirus neutralization: > 50 µg/mL
